# From PMC5567992
# What was measured:
# [1] = molecular target: MBP-CNTNW^T243C,C364S,A373C (inward-facing cross-linking mutant) (Neisseria wadsworthii); experiment: cross-linking
# [2] = molecular target: concentrative nucleoside transporter from Neisseria wadsworthii (CNTNW), wild type (Neisseria wadsworthii); experiment: crystal structure
# [3] = molecular target: MBP-CNTNW^T243C,C364S,K388C (outward-facing cross-linking mutant) (Neisseria wadsworthii); experiment: cross-linking
# [4] = molecular target: CNTNW^N149L, SeMet labelled (Neisseria wadsworthii); experiment: crystal structure
# [5] = molecular target: CNTNW^N149S,E332A (Neisseria wadsworthii); experiment: crystal structure
# [6] = molecular target: CNTNW^N149S,F366A (Neisseria wadsworthii); experiment: crystal structure
# [7] = molecular target: CNTNW^N149L (Neisseria wadsworthii); experiment: crystal structure
substance,measurement,setting,value
"MBP-CNTNW^T243C,C364S,A373C (inward-facing cross-linking mutant) (natural protein)",stoichiometry N,[1],3
"concentrative nucleoside transporter from Neisseria wadsworthii (CNTNW), wild type (natural protein)",stoichiometry N,[2],3
"MBP-CNTNW^T243C,C364S,K388C (outward-facing cross-linking mutant) (natural protein)",stoichiometry N,[3],3
"CNTNW^N149L, SeMet labelled (natural protein)",stoichiometry N,[4],3
"CNTNW^N149S,E332A (natural protein)",stoichiometry N,[5],3
"CNTNW^N149S,F366A (natural protein)",stoichiometry N,[6],3
CNTNW^N149L (natural protein),stoichiometry N,[7],3
